Data reported in article PMC10325900, “A conserved motif in the disordered linker of human MLH1 is vital for DNA mismatch repair and its function is diminished by a cancer family mutation” (Nucleic Acids Research, 2023).
Changes are numbered by the printed parent chain. “Also recorded” adds a separate entry of the source.

B1: p.Arg385Tyr: MLH1 variant (protein, UniProt P40692 2-756, looked up, variant R385Y)
DNA mismatch repair protein …: SFVAGVIRRLDETVVNRIAAGEVIQRPANAIKEMIENCLDAKSTSIQVIVKEGGLKLIQIQDNGTGIRKEDLDIVCERFTTSKLQSFEDLASISTYGFRGEALASISHVAHVTITTKTADGKCAYRASYSDGKLKAPPKPCAGNQGTQITVEDLFYNIATRRKALKNPSEEYGKILEVVGRYSVHNAGISFSVKKQGETVADVRTLPNASTVDNIRSIFGNAVSRELIEIGCEDKTLAFKMNGYISNANYSVKKCIFLLFINHRLVESTSLRKAIETVYAAYLPKNTHPFLYLSLEISPQNVDVNVHPTKHEVHFLHEESILERVQQHIESKLLGSNSSRMYFTQTLLPGLAGPSGEMVKSTTSLTSSSTSGSSDKVYAHQMVYTDSREQKLDAFLQPLSKPLSSQPQAIVTEDKTDISSGRARQQDEEMLELPAPAEVAAKNQSLEGDTTKGTSEMSEKRGPTSSNPRKRHREDSDVEMVEDDSRKEMTAACTPRRRIINLTSVLSLQEEINEQGHEVLREMLHNHSFVGCVNPQWALAQHQTKLYLLNTTKLSEELFYQILIYDFANFGVLRLSEPAPLFDLAMLALDSPESGWTEEDGPKEGLAEYIVEFLKKKAEMLADYFSLEIDEEGNLIGLPLLIDNYVPPLEGLPIFILRLATEVNWDEEKECFESLSKECAMFYSIRKQYISEESTLSGQQSEVPGSIPNSWKWTVEHIVYKALRSHILPPKHFTEDGNILQLANLPDLYKVFERC
B2: p.Arg385Glu: MLH1 control variant (protein, UniProt P40692 2-756, looked up, variant R385E)
DNA mismatch repair protein …: B1 DNA mismatch repair protein … with Y384E
B3: p.Arg385Ala: MLH1 control variant (protein, UniProt P40692 2-756, looked up, variant R385A)
DNA mismatch repair protein …: B1 DNA mismatch repair protein … with Y384A
B4: p.Arg385His: human MLH1 missense variant, c.1154G>A (protein, UniProt P40692 2-756, looked up, variant R385H)
DNA mismatch repair protein …: B1 DNA mismatch repair protein … with Y384H
B5: p.Val384Asp: human MLH1 missense variant, c.1151T>A (protein, UniProt P40692 2-756, looked up, variant V384D)
DNA mismatch repair protein …: B1 DNA mismatch repair protein … with V383D, Y384R
B6: p.Tyr379Cys: human MLH1 missense variant, c.1136A>G (protein, UniProt P40692 2-756, looked up, variant Y379C)
DNA mismatch repair protein …: B1 DNA mismatch repair protein … with Y378C, Y384R

Test system: G-T mismatch in a test plasmid
Assay: MMR activity of MLH1 variants (MLH1-PMS2 expressed in HEK293T cells)
Type: biochemical, human
Conditions: >3 independent experiments; for DNA mismatch repair activity of MLH1 variant (in words): variant MLH1 + PMS2 transfected in HEK293T, relative to wildtype, 37°C, 15 min; for effect of second p.Arg385 alteration on the MMR defect of p.Tyr750Arg: double variants (Figure 6D)
Description: Sequence variants of the MLH1 expression vector were generated using the Q5 site directed mutagenesis system (New England Biolabs, Ipswich, MA, USA) with the appropriate primers (Supplementary Table S1).
Mismatch repair activity was assessed as described in detail before ([79],[81]) (Supplementary Figure S3). […] Mismatched DNA plasmid substrate (Supplementary Figure S3) prepared according to previously published procedures ([81–83]) was added, and reactions in a final volume of 25 μl were incubated at 37°C for 15 min. Repair efficiency was scored by purifying the mismatched DNA plasmid from the reaction and assessing the fraction of homoduplex sequence by restriction digestion of the mismatched site using EcoRV. The substrate was additionally linearized with AseI.
Figure 2. Expression and DNA mismatch repair activity of human and artificial ConMot variants. […] As a negative control, one sample was only transfected with an EGFP. After 48 h, native whole cell protein extracts were prepared. Expression was assessed by SDS-PAGE and western blotting. (A) Representative western blot of MLH1 wildtype and variant expressions. Average expression levels of MLH1 of > 5 independent transfections were determined and are given in the bar diagram below. (B) The extracts of the transfections were used to assess the DNA mismatch repair activities of the variant MLH1 proteins in comparison with wildtype (WT) MLH1-PMS2 as detailed in Materials and Methods and as shown in Supplementary Figure S3. The EGFP-transfected extract sample served as negative control. Representative agarose gels are shown in the top panel.
Figure 3. Analysis of the relevance of ConMot core and surrounding sequences. MLH1 proteins containing either the wildtype human ConMot motif sequence or variants were directly compared concerning expression and MMR activity. (A) Comparison of the ConMot variants used: the core-scramble variant sequence, the full-scramble variant sequence and an animal-plant hybrid that contains the ConMot consensus sequence of plants as it exists, for example, in walnut and mungo bean (Vigna radiata and Juglans regia). (B) Comparison of conservation in the animal versus plant ConMot in WebLogo representation. Specific differences in conservation within the sequences flanking the core MVRTD sequence are marked by red arrows above the animal sequence. (C) Western blot of the expression of the different MLH1-ConMot wildtype (WT) and the variants shown in A after transfection in HEK293T cells; negative control: transfection of EGFP. (D) MMR activities were assessed in direct comparison to negative control and wildtype human MLH1 as in Figure 2B. Average activities and standard deviations were calculated from >3 independent experiments.
Figure 6. The MMR defect of p.Tyr750Arg is partly compensated by p.Arg385Tyr. […] (B) The side chain of the highly conserved Arg385 is predicted to be in proximity to the side chain of the highly conserved Tyr750 residue. (C) MLH1-PMS2-deficient HEK293T cells were co-transfected with the indicated single- and double variants of MLH1 and PMS2. Protein extracts were prepared, separated by SDS-PAGE, blotted and probed for MLH1 protein expression. (D) MMR assays were performed to test DNA mismatch repair activity as detailed in Materials and Methods. One representative agarose gel is shown, and average repair values in comparison to wildtype and standard deviations of >3 independent experiments are shown in a bar diagram. A two-sided t-test was performed for testing significance of the difference in repair activity of p.Tyr750Arg in comparison to the double variant p.Arg385Tyr + Tyr750Arg.
Mismatched DNA plasmid substrate and principle of MMR assay.
The MMR assay is performed using as substrate a modified 2 kbp derivative of the pUC vector (pUC
CPDC Bb v) originally generated by Wang and Hays and further modified by Plotz et al. and Gonzáles-
Acosta et al . […]

Molecule | DNA mismatch repair activity of MLH1 variant (in words) | other results
p.Arg385Pro: human MLH1 missense variant in the MVRTD motif | a defect similarly strong as the core-scramble variant; also recorded: most pronounced effect; also recorded: mismatch repair defect | DNA mismatch repair activity of MLH1 variant (in words) (listed as proline substitution of Arg385): loss of mismatch repair activity
ΔConMot: deletion variant in which the conserved ConMot sequence comprising 20 residues was removed | fully abrogated mismatch repair | DNA mismatch repair activity of MLH1 variant (in words) (listed as deletion): complete loss of MMR activity; DNA mismatch repair activity of MLH1 variant (in words) (listed as deletion of the ConMot): fully deficient in MMR
B1 | well tolerated | –
B2 | a defect similarly strong as the core-scramble variant | effect of second p.Arg385 alteration on the MMR defect of p.Tyr750Arg: additionally aggravated the defect
B3 | a defect similarly strong as the core-scramble variant | effect of second p.Arg385 alteration on the MMR defect of p.Tyr750Arg: additionally aggravated the defect
B4 | tolerated; also recorded: did not affect catalytic activity | –
B5 | no detectable impairment of MMR | –
B6 | did not find a catalytic defect | –
